Assay results as given in US20100150860A1.

Key:
[1] = target: human fibrin (Sigma, F5386) (human) (UniProt P02671); experiment: SEC-HPLC of the mixture after 1 h at 37 C; peak of the bound pair
[2] = target: human fibrin (Sigma, F5386) (human) (UniProt P02671); experiment: SEC-HPLC of the mixture after 1 h at 37 C; second peak (thrombin alone runs at 18.778)

human fibrin (Sigma, F5386) (human), sequence (P02671 36-629, chain 1 of 3): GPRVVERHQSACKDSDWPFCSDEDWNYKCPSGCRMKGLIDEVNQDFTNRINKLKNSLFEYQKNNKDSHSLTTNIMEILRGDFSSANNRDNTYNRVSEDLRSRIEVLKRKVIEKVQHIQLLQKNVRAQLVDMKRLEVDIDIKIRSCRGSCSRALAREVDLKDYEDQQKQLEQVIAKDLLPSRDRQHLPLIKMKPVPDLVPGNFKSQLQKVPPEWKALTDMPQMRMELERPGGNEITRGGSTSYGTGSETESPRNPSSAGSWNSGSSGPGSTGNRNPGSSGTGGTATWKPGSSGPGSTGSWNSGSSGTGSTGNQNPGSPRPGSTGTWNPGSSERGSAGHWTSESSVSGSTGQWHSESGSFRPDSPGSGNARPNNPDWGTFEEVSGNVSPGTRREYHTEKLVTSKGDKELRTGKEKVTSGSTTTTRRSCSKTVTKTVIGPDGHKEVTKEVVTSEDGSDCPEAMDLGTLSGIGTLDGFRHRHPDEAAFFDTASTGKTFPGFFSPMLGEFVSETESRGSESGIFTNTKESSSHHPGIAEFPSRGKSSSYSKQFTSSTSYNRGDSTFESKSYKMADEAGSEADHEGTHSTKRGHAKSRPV
human fibrin (Sigma, F5386) (human), sequence (P02675 45-491, chain 2 of 3, further chain): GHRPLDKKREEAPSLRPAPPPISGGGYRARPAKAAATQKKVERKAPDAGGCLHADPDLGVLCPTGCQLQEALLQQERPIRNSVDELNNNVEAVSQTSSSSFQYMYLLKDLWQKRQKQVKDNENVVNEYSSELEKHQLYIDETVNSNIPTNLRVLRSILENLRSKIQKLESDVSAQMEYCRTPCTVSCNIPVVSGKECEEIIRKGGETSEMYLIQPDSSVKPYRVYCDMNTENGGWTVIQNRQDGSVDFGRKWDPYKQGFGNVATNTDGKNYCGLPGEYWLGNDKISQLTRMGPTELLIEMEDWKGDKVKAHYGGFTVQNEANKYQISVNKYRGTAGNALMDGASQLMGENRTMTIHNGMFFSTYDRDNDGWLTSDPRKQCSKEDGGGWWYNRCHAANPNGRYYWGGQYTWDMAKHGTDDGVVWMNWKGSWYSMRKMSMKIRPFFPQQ
human fibrin (Sigma, F5386) (human), sequence (P02679 other isoform, or with tags, fused parts or gaps, chain 3 of 3, further chain): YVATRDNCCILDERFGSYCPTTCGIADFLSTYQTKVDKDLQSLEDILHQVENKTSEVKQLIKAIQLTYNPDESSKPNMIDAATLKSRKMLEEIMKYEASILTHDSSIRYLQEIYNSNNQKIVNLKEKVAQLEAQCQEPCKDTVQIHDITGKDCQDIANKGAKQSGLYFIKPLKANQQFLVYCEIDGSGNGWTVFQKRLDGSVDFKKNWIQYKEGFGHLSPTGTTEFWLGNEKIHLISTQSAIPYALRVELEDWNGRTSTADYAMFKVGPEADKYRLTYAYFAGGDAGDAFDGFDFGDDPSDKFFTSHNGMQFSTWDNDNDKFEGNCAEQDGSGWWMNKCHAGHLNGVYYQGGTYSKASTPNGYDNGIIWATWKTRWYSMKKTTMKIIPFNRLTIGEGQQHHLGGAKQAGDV

## human thrombin (National Institute for the Control of Pharmaceutical and Biological Products, Lot No. 20021105) (from UniProt P00734 328-622) (enzyme)
[1]
  retention time (min), peak 1: 12.6 min
[2]
  retention time (min), peak 2: 18.6 min
